Measured values reported in patent publication US7582299B2, “Cripto-specific antibodies” (Biogen Idec MA Inc., priority 2001, dated 2009).

What was measured:
T-47D-CR cells = assay: Proliferation of T-47D-CR cells with Activin, with or without anti-Cripto mab; assay type: cell-based, human; conditions: low serum; FIG. 6
Method: (§1) T47D cells, maintained in RPMI/10% FCS/10 μg/ml insulin, at passage #2 from the ATCC were transfected with an expression plasmid for the Ecotropic Receptor (EcoR; B. Elenbaas) and selected in media containing 100 μg/ml hygromycin. Colonies of T-47D-EcoR that permitted infection of pBABE-GFP murine leukemia virus (MLV) were grown out, infected with pBABE-hCr-PURO-MLV and selected in puromycin media. This oligoclonal line (T-47D-hCr) was analyzed by FACS for hCr (human Cripto) expression with specific anti-Cripto antibodies. Approximately 4000 cells/well of T-47D-EcoR or T-47D-hCr were plated in a 96 well plate in media containing 2% serum with/without 25 ng/ml Activin B (R&D) or […] plus 0.1-50 μg/ml A8G3.5. Media with factors was replaced daily for 7-8 days. The plate was harvested by adding 20 μl/well CellTiter AQueous One solution (Promega), incubating 2 hours 37° C., and reading at 490 nm.
(§2) We grew T-47D and T-47D-EcoR cells in low serum conditions, with or without Activin A or B and assayed for proliferating cells using an MTT colorimetric assay.
We then tested whether antibodies of the invention can inhibit the Cripto-Activin B interaction. We treated T-47D-CR cells with Activin B in the presence of various antibodies of the invention. We observed that the growth suppressive activity of Activin B was restored in the presence of 10 or 20 μg/ml mab A8G3.5 (FIG. 7).

CR-Fc [1] = biological target: T1, CR-Fc (Homo sapiens, UniProt P13385); assay: ELISA of CR-Fc on ligand-coated plates; assay type: binding; conditions: for inhibition of CR-Fc binding to Activin B coated plate: CR-Fc pre-incubated with ligand in solution, FIG. 9; for binding of CR-Fc to ligand-coated wells: ELISA plates coated with purified ligand, FIG. 8
T1 sequence (P13385 31-150): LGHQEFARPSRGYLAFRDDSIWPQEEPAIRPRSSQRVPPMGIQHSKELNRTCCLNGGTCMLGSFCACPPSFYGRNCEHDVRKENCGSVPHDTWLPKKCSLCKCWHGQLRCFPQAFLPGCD
Method: In still other experiments, we coated 96 well plates by adding to each well 100 μl of 3-5 μg/ml Activin B or another ligand in 50 mM carbonate (pH 9.5). We incubated the plates for 1 hr. at room temperature and blocked overnight with TBS/1% BSA overnight at 4° C. We incubated the plate with CR-Fc or ALK4-Fc in blocking buffer at room temperature, washed in TBST and probed with anti-human-AP (Jackson). We washed the plate in TBST, once in 10× substrate buffer (200 mM Tris-HCl, 10 mM MgCl2, pH 9.8) and added CSPD and Sapphire (Applied Biosystems).
We discovered that Cripto binds directly to Activin B. We coated ELISA plates with purified Activin B, Activin A, TGFβ1, GDNF or BMP2 and incubated with CR-Fc. We then added anti-Fc antibody conjugated to alkaline phosphatase and monitored binding by adding an alkaline phosphatase substrate and developing.

T-47D cells = assay: Proliferation of T-47D cells with Activin A or B (MTT); assay type: cell-based, human; conditions: low serum; compared to untreated cells; FIG. 6
Method: as §1, §2

CR-Fc [2] = biological target: T1, CR-Fc; assay: Biacore, CR-Fc immobilized on chip; assay type: binding; conditions: for binding to CR-Fc immobilized on a Biacore chip: FIG. 10
Description: We also analyzed the Cripto-Activin B interaction using Biacore. […] We also observed that Activin A binding to CR-Fc was negligible.

Substance | response of T-47D-CR cell proliferation to Activin (T-47D-CR cells) | inhibition of CR-Fc binding to Activin B coated plate (CR-Fc [1]) | binding of CR-Fc to ligand-coated wells (CR-Fc [1]) | inhibition of proliferation of T-47D cells (T-47D cells) | binding to CR-Fc immobilized on a Biacore chip (CR-Fc [2]) | on rate of binding to Cripto (CR-Fc [2]; Biacore)
Activin A: purified ligand protein tested on T-47D cells and for binding to CR-Fc | inhibited by Activin A | only Activin B inhibits binding | not to Activin A | approximately 40% | negligible | –
Activin B: purified ligand protein (R&D) that binds Cripto and inhibits tumor cell proliferation | not responsive to Activin B | only Activin B inhibits binding | bound to wells containing Activin B | approximately 40% | directly binds CR-Fc immobilized on a Biacore chip with a high intensity | fast on rate
